Assay results from PMC10836395, “Investigation of how gate residues in the main channel affect the catalytic activity of Scytalidium thermophilum catalase” (Acta Crystallographica. Section D, Structural Biology, 2024).
Changes are numbered by the printed parent chain. Names may count otherwise.

B1: E484I (Mycothermus thermophilus; E503I) (protein)
chain: TCPFADPAALYSRQDTTSGQSPLAAYEVDDSTGYLTSDVGGPIQDQTSLKAGIRGPTLLEDFMFRQKIQHFDHERVPERAVHARGAGAHGTFTSYADWSNITAASFLNATGKQTPVFVRFSTVAGSRGSADTARDVHGFATRFYTDEGNFDIVGNNIPVFFIQDAIQFPDLIHSVKPRPDNEIPQAATAHDSAWDFFSQQPSTMHTLFWAMSGHGIPRSYRHMDGFGVHTFRFVKDDGSSKLIKWHFKSRQGKASLVWEEAQVLSGKNADFHRQDLWDAIESGNGPEWDVCVQIVDESQAQAFGFDLLDPTKIIPEEYAPLTKLGLLKLDRNPTNYFAETEQVMFQPGHIVRGIDFTEDPLLQGRLFSYLDTQLNRNGGPNFEQLPINMPRVPIHNNNRDGAGQMFIHRNKYPYTPNTLNSGYPRQANQNAGRGFFTAPGRTASGALVREVSPTFNDHWSQPRLFFNSLTPVEQQFLVNAMRFIISLVKSEEVKKNVLTQLNRVSHDVAVRVAAAIGLGAPDADDTYYHNNKTAGVSIVGSGPLPTIKTLRVGILATTSESSALDQAAQLRTRLEKDGLVVTVVAETLREGVDQTYSTADATGFDGVVVVDGAAALFASTASSPLFPTGRPLQIFVDAYRWGKPVGVCGGKSSEVLDAADVPEDGDGVYSEESVDMFVEEFEKGLATFRFTDRFALDS
notes: recombinant, pET-28-TEV-CATPO; contains heme b; Rz 0.5
B2: T188I (Mycothermus thermophilus; T207I) (protein)
chain: B1 chain with T188I, I484E
notes: recombinant, pET-28-TEV-CATPO; contains heme b; Rz 0.4
B3: T188A (Mycothermus thermophilus; T207A) (protein)
chain: B1 chain with T188A, I484E
notes: recombinant, pET-28-TEV-CATPO; contains heme d; Rz 0.7
B4: T188D (Mycothermus thermophilus; T207D) (protein)
chain: B1 chain with T188D, I484E
notes: as for B1
B5: CATPO (Mycothermus thermophilus) (protein)
chain: B1 chain with I484E
notes: recombinant, pET-28-TEV-CATPO; contains heme d; Rz 0.8

What was measured:
[1] = substrate: CC(C)(C)c1ccc(O)c(O)c1; experiment: Spectrophotometric phenol oxidase assay without H2O2 at pH 7.0 and 60 °C, initial rates fitted to the Michaelis-Menten equation.; format: biochemical
Protocol: (§1) All inhibition assays were performed in triplicate.

[2] = substrate: Cc1ccc(O)c(O)c1; experiment: as above; format: biochemical
Protocol: as §1

[3] = substrate: Oc1ccc(O)cc1; experiment: as above; format: biochemical
Protocol: as §1

[4] = substrate: CCn1c(=NN=c2sc3cc(S(=O)(=O)O)ccc3n2CC)sc2cc(S(=O)(=O)O)ccc21; experiment: purified protein, by the assay type; settings: 60.0 °C
[5] = substrate: Oc1ccccc1O; experiment: Phenol oxidase activity (H2O2-independent) measured spectrophotometrically by product formation at pH 7.0, 60 C, Michaelis-Menten fit.; format: biochemical
Protocol: as §1

[6] = substrate: Oc1ccccc1O; experiment: Spectrophotometric catechol oxidation assay at 420 nm, pH 7.0 and 60 °C; values not normalized to heme content.; format: biochemical
Protocol: as §1
Tabl e S1 Comparison of gate residues at the entrance of the main channel among large subunit […]
PDB ID e Organism Gate residues
Tabl e S2 K i neti c const ant s
**Catalase activity **Phenol oxidase activity
*KM-app kcat kcat/*KM-app KM kcat kcat/KM
(mM) (s-1) (s-1 M-1) (mM) (s-1) (s-1 M-1) Rz Heme
RZ = A407/A280. T he values were normalized to heme content in each CAT PO variant. T he values in parentheses are for unnor malized val ues a nd shaded in gre y for ease of vie wi ng. *KM-app is the H2O2 concentratio n at Vmax/2 […]
Michaelis–Menten kinetics (Switala & Loewen, 2002).
**One unit of catalase is defined as the amo unt that catalyses the degradation o f 1 µmol H2O2 in 1 min. One unit of phenol oxidase corresponds to the enzyme catalysing the formation of 1 nmol of product per minute.

[7] = substrate: Oc1ccccc1O; experiment: Phenol oxidase activity (H2O2-independent) measured spectrophotometrically by product formation at pH 7.0, 60 C, Michaelis-Menten fit.; format: biochemical; remark: listed apart in the source

| Protein | Km [1] | Km [2] | Km [3] | Km [4] | Km [5] | kcat [5] | kcat/Km [5] | Km [6] | kcat [6] | kcat/Km [6] | Km [7] | kcat [7] | kcat/Km [7] |
| --- | --- | --- | --- | --- | --- | --- | --- | --- | --- | --- | --- | --- | --- |
| B1 | 37 ± 0.4 mM | 35 ± 0.7 mM | 45 ± 1.3 mM | 50 ± 0.5 mM | 30 ± 1.0 mM | 26500 ± 1320 s⁻¹ | 880000 ± 7200 M⁻¹ s⁻¹ | 40 mM |  |  |  |  |  |
| B2 | 35 ± 0.5 mM | 34 ± 1.2 mM | 44 ± 0.4 mM | 48 ± 0.7 mM | 31 ± 0.5 mM | 28400 ± 1100 s⁻¹ | 920000 ± 4500 M⁻¹ s⁻¹ | 40 mM |  |  |  |  |  |
| B3 | 37 ± 1.0 mM | 35 ± 1.0 mM | 46 ± 0.4 mM | 52 ± 0.8 mM |  |  |  | 33 ± 0.5 mM | 6700 ± 335 s⁻¹ | 200000 ± 12000 M⁻¹ s⁻¹ |  |  |  |
| B4 | 38 ± 0.5 mM | 30 ± 0.1 mM | 46 ± 1.0 mM | 55 ± 1.0 mM | 25 ± 1.5 mM | 22300 ± 669 s⁻¹ | 890000 ± 7000 M⁻¹ s⁻¹ | 33 mM |  |  |  |  |  |
| B5 | 36 ± 1.0 mM | 35 ± 0.3 mM | 45 ± 1.5 mM | 50 ± 1.5 mM |  |  |  |  |  |  | 33 ± 0.5 mM | 7300 ± 365 s⁻¹ | 220000 ± 13000 M⁻¹ s⁻¹ |
